Some results are limits rather than exact numbers.

The test system of the series is Saccharomyces cerevisiae. Description: transcriptional activation domain activity (GFP:mCherry ratio, weighted mean of sorted bins, harmonized to initial dataset scale) (arbitrary fluorescence ratio units); higher = stronger transcriptional activation. Particulars: beta-estradiol 1 µM; induction time 4 h. The gist of the method: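 Each value is an activation activity: the read-weighted mean of bin median fluorescence, averaged across barcodes, then mapped linearly to the initial dataset scale. The tiles, fused to an estradiol-inducible synthetic transcription factor, sat at the yeast URA3 locus in GFP-reporter diploids. Cells spent 4 hours at 30 °C in SC with 1 uM beta-estradiol before sorting into 8 GFP:mCherry bins, and tiles below 50 reads were removed.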
On to “SNYCWQMSVLPRARISIFRAEVKERCVVTVALLFSVYDPIAIVDLVKKLETDF”, for which the “transcriptional activation domain activity” value was found to be 27500.
In the case of “KLWKKPIIVVMAAMPIIMDGVGNLLIPYLHSFVLHSLLFCHKKVAFLMLLLIF” it was 59100; in that of “MSSSEDEPRPRKARSKLSPPASPDSRAQSAPAVPSPVKLVRAKPRARAKAASL”, 42700.
In the case of “EEDEETSHEVRSKVYKLVKKSDGNQEWNDMGVETGSRRVLLRNSSTGKIVINF” it was 25400.
In the case of “VSYVSYVLLFIPFFMLRVFYLSIVTFFLCHIWLHRFGFLVWLWILWCTWGWCN” it was 54800; in that of “SADIERRHHKKNHKGGANAGNAAGNNNNAGGNAGNATAAAANRRDVVEDLQSR”, 13900.
Take “WRILLIVHLFGPFSLVDELLLPFKSSTSIFLFGILYIYCLFVLFLAYMILSIL”: the “transcriptional activation domain activity” value worked out at 32600.
“CEMQFAKDTVVRRYCLLLECLELLPVSAIKAVTRMLHRIVVKCGCVAMFFKMS”: the “transcriptional activation domain activity” value stood at 70400.
Turning to “VHLTLNLGTYLRVISIGKPFPMWLDYWYNYGYILYCAILQLYELWQIVILIWL”, the “transcriptional activation domain activity” value stood at 60100.
In the case of “MTYLPFINFSLDIFVIVIVIVIYFPFFVTNFFNWFFSPFWCYLINYLFNLNLF” it was 52400.
To “SPVYLICMGTVLLYVGVIIVMLIERIAYFRPGDGLCVIGLKPVASLSLLCFDL” belongs 37200; to “QHKKRRAEQAGRGEKAEADGSQARRKAEDRREEQQRAKQSAGQKEQEKVKAEQ”, 56000; to “LAHCGCSQSLLLLLFSFPYRYYIILFHYWVLRGGLTIPIYRVLCGFFLPSFVL”, 62200.
Regarding “MAGQNNPFVGAVFSGLFLGYMILAAALSIFFLLYFNRVFASIVSWGIRAWTWR”, the “transcriptional activation domain activity” value stood at 31200.
In the case of “GMIGFDPNVSLEKIYHGRFKDILHKGIQIADRTFTFLGFSHSSLRGHTCWFAA” it was 75600; in that of “PLLLKGLQFTMAEEKTWSLLRQIMLLDNLPLIDPAPTRFMYLLLGAIPRLLNG”, 49700.
Consider “VKPIPPRPSTGLRYRVETLIGITGYRMAKFRPSWSEVVLACLNVLWRPQFFFV”, for which the “transcriptional activation domain activity” value was determined as 55000.
To “NLSLQEIVGILLRANAFRPMCKNCEHLRDKVGAHIVDCACFEYWLQLGLFIAP” belongs 47000.
In the case of “SRSRKGRGRRRRGSKASRGSRSSRGSAASSANTSDSSSSSSSSDSDDSSSSSS” it was 18200; in that of “EDDDGKGNKQKTSEKRKLQNRQAQRNFRERKEKVSCPSSPAAPRASQGTRGSC”, 23900; in that of “LHGFDWSEEDDMSDGLPFLKTDPNNNGFFGDGSLLCILRSIGFKPENYTNSNV”, 50300.
In the case of “TRKLVFKWPYVPYLLGRYTMICCLLFVWVLLVNPIDCVHNELFIALVACMAVC” it was 22500; in that of “MLVVELLPAIESFFGHIFCTDFMFCFLFFYIIYIFFFSRFSVIANYTVMSLYF”, 85300; in that of “NNLNITGYEWISSELRDDALLSAVTLQGHHLGHTQPQEISLEENSNVVSGEEH”, 59600.
“NLLQHIIPPFFINHHHHYYSPFHTSYTFFFSTFVYALFFYIIMYLSIFISLLL”: the “transcriptional activation domain activity” value was found to be 62200.
In the case of “LVREHELLGVIICHLVKSNQSGLTDLEYLLNIVKKIDKYDNLLVHYFPALGAL” it was 24500.
To “SEESEGETGGKRKRKASSSSGRGEKGKKSKRGGGPEARTRKRKAAAETAETGE” belongs 23500; to “DSRRKRNTSSEEDEPKKTDREERRREYRSRDHNVADEERSNKHRSSRRKHRSA”, 7300.
As to “SLYRVWDCKSTMLAFSKYIPQIHSPSALEYALVSMGSDFVLFLLRRIFEILKK”, the “transcriptional activation domain activity” value was determined as 55500.
To “MPIGCLMRQVHWHRAEMREYQACLLIFQALLCTTGDPFAHILMYMWFGILYRF” belongs 58800.
To “ESAPAAEDKPAEETKPAEAEEAPKAEEKKEEVKPIEEGHLNHKAQGLSFPKNL” belongs under 6570; to “RPLSEASRDLALPSVTRVWCDEKDNIFYMQDVNFVTDITKVLLVSVLSTVARC”, 47600.
To “MNITTVRALGLYILFHQYLIMIEDFICGFLIWYLRYFFYFTYLLCTVISYLSC” belongs 78500; to “GNIHFTLRMALSDPDMTTVRPVLDLLFGLTHFFFVVNTGLFDLIQSCFKIIEA”, 55100; to “AREGARIRIVNRTVTVGKRTMSARSEVYDADNSRLVASGSHSKMTGSQPETRL”, 17700.
Regarding “MFQIHFLLFFFFFFSFFLLLLCFDVSILEVYFYKLLLFSFFFMMIVDLFFLFL”, the “transcriptional activation domain activity” value stood at 60300.
To “RNIGTGPSAPGGVDHKRSRACESCRGLKVRCEPANEANLQGSCKRCAKAGRHC” belongs 40400; to “FLNNAPDEDPNLNNQWSICDDFSEGRQVNDAFVGGSNIPHTLKGLQKSLRFMN”, 50800; to “EGKEERGKGGEGEGGEGGEGERRDGKREGREGNGNRGGTEGKGERRKRKSQRE”, 28700.
To “MGWGAFWRWLVGCSLVLYVFYPLLSYLRCFILVFRFVYIYLPLTDCFLLFISK” belongs 53300; to “LLLYLLQLVQALKYEHISTEANRDATQKSSLARFLIARAVDSFMLGNYFYWYL”, 59400.
To “MLFVCFFWLWGWWLVVVVFVFLFFSFFLLLSSEFTDPFAFFCLFFFVLLHFSF” belongs 44000.
As to “MVTVGILHYLLIGNLLTNVLFGVYVQMAWKCSCIFYRKYQMGQVHSYHLFSFI”, the “transcriptional activation domain activity” value was determined as 80900.
To “HLLYVYLVLIAVVISSYRCFLNVSTRSIVICLLTHAFWPPLTFIIVCSAFWIP” belongs 73100; to “RLRAEGEEDAAAGNDQNKSGRKGGGVAMVGDGINDSPALAAASVGIALSTGSE”, 29300.
In the case of “SFCFILPFTALTLFIFFLSRISCWSAVWWLDDFWLLHICLDISFTFFLFYSFF” it was 62800; in that of “ELWHSLYMLFKTYWCRLLHYALSLVLLCSFIVRLVSVIAILDSKRCGLTLFAA”, 73200; in that of “FCMLNHWYARSWGTYLWLGLLLTDLDVTYKYKKWLYAHPGTYYPLLTFAWLCV”, 63000.
In the case of “YVVQYKNSLIGKHFKMLQQLGVFHLHDLCTPLLFDLWKATGELGALLWYPEIK” it was 33300; in that of “MSLSFFFFSFFFLFFIIIFGRSRWLCYDGFGFFFFSFFLLMLAVFLFLLTYFT”, 50800; in that of “RGREDNEDGGRNKRRGGGRFEGRRGRGDRDGNRRRDTRDSRREDKSTANGDAS”, under 6570.
For the sequence “FPFFLSSLFFFLPFFSFFPFFLSSLFLLLFFSFSSSSYQTFSLREQFFHLFFT”, the “transcriptional activation domain activity” value is 43500.
To “VTRHHEFLRVHLNEKGEKLLYITHRLDKNGFDVRVFLVAASGFLTDSYILFVT” belongs 39700; to “PKVLYILARYLGIIYISLFLGLRWSHFPIFVMKVNNLAYFVNALLYYTWIIIT”, 33800.
Regarding “TLQRIVLDFFTAPCFSDVIVADILTSFARVFGDLSTVFFTLVWGSCPHWIPPF”, the “transcriptional activation domain activity” value amounted to 61200.
To “WLSHSQKKHCELCKTPFRFTKLYAPNMPKALPTHIFLSHMAKYILRNLLVWLR” belongs 61200; to “KKEEVKQEPAAPTPAPAPAPTGASSDRGGRGQGRGRARGDSSRGGGGRAAAPP”, 38000; to “MSSTKRPAEEEEPVIHEEDEPGKPDSAAAPAPKRRGRPPGSKNKKTIAAEAAA”, 32700.
As for “LHEQLESLMLRRLKRDVLTSLPTKSERILRVEMSALQTHFYKNILTKNFQALV”, the “transcriptional activation domain activity” value worked out at 74100.
For the sequence “TKTVKDTTPATNHMDDDIAMFDSLATTQPIDIAASNQQNGEIAQLWDFNVDQF”, the “transcriptional activation domain activity” value stood at 77600.
To “EPLFLEAQLIHMINFFETFFHKYETSIDRHNLIRHNALEKYYQGINCGRHMLC” belongs 95700; to “SLLPSPPQAVIFLVLFFSFLLLALFGYLFYFPLIPFLKTSIPIFSTYYSFFFM”, 24300.
To “SSHCLLENDMFVFFANCSVNQLAMGEDMHHILRLCYSAELIKVLLTYLGRSTF” belongs 56400; to “RFISLAFFDVVSCSVWLSIYHLLVLRFFLDLQSCLSFLLLYIRPSFPCLLIPR”, 50500; to “VTSLATARLPAARPRTAVLPARATSAVRRVTCRANAPRTAVRVTAATVPSATR”, 45400.
Take “TVWLILNDQTLGYALGSFLCENSLLLSQRINEFFDTVLVAWMQWVLRWLDSWP”: the “transcriptional activation domain activity” value stood at 40400.
In the case of “LYILLVFPILLLMMLHSLVTFLYVRAIDPLYGSVPINLHLDKIVWVATFAGAF”, the “transcriptional activation domain activity” value was 63200.
In the case of “AAATTADAKPASSAADKASSSVAAASAGQATASTDSGTAKAEKKKKGKAAAVA” it was 8920; in that of “RGDGMEERKGEKRGRKGGERGGRGEGGHRGRKGDTEGGRGTGEKRGGKGGKRG”, 33500.
In the case of “NEEKGGKDAASRESAVHVYGTLGSRIGRGPRSPSVLSRSFHDIHDCLACVLVV” it was 56900; in that of “TVKNLYLFIIITTVNVVVLLICVAHFALVFMSRAGLSLHARQLTALMHAKFTH”, 49000; in that of “MFKSFLGHSDQNTFFFFVLLLLLLCCHISLRAFFIFLSWIQLLYVLQWDECDK”, 47800.
In the case of “EAAARRERKQAAEKGENRERKRRTQGLQNNTARSQKDGDGKGEGGKDNKKDGK” it was 29200; in that of “GRRRVWTSLLDRGAGGEGGAGYVCGVTIDEGSNISGDHIQSTCILVDEYCELC”, 74500.

These data come from the supplement of paper PMC12636428.
